Molecular target: T1, EloBC (elongin B - elongin C heterodimer), Q15370
T1 chain 1: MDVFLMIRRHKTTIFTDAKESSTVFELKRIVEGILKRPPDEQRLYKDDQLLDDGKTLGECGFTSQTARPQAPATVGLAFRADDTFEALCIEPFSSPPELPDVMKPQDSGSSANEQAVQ
T1 chain 2: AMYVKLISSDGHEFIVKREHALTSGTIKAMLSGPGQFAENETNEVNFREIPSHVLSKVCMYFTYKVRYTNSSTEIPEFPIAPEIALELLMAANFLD
Assay: ITC

Binder: HNKVGSLQYLALAAL (domain or fragment, modifications not checked) [Vif BC-box protein]
- Kd: 2200 nM
